Assay results from US20210033609A1 (EUROIMMUN MEDIZINISCHE LABORDIAGNOSTIKA, published 2021).

Experiments:
[1] = target: T1, bovine Apolipoprotein A-I (Bos taurus, UniProt P15497 25-265); experiment: co-purification from cell culture supernatant on nickel affinity resin via the His tag of NS1
T1 construct: also called bovine apolipoprotein A1; Apo AI[Bos taurus]
T1 sequence: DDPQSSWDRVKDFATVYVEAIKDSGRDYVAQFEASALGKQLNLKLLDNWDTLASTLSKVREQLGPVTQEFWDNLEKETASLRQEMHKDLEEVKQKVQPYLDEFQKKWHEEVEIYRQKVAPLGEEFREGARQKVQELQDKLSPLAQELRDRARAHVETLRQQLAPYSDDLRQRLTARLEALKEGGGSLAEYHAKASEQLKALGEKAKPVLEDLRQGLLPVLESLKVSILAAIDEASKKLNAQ

[2] = target: the molecule itself; experiment: self-association; analytical gel filtration (Superdex 200)

B1: sNS1 (recombinant Zika virus NS1 purified from HEK293T culture supernatant) (other)
chain: GPMDVGCSVDFSKKETRCGTGVFVYNDVEAWRDRYKYHPDSPRRLAAAVKQAWEEGICGISSVSRMENIMWKSVEGELNAILEENGVQLTVVVGSVKNPMWRGPQRLPVPVNELPHGWKAWGKSYFVRAAKTNNSFVVDGDTLKECPLKHRAWNSFLVEDHGFGVFHTSVWLKVREDYSLECDPAVIGTAVKGKEAAHSDLGYWIESEKNDTWRLKRAHLIEMKTCEWPKSHTLWTDGVEESDLIIPKSLAGPLSHHNTREGYRTQVKGPWHSEELEIRFEECPGTKVHVEETCGTRGPSLRSTTASGRVIEEWCCRECTMPPLSFRAKDGCWYGMEIRPRKEPESNLVRSMVTALEHHHHHHHH
notes: Secreted form purified in the presence of 0.1% Triton X-100; Gel filtration: mainly hexamer (227 kDa); also called NS1[ZIKV]; soluble NS1 purified from cell culture supernatant
B1: binds [1]; binds [2].

B2: mNS1 (recombinant Zika virus NS1 purified from HEK293T cell lysate) (other)
chain: B1 chain
notes: Expressed in HEK293T from pTriEx-1; Gel filtration: mainly hexamer (212 kDa) with an extra monomer peak (44 kDa); SDS gives a dimer, heat gives a monomer; also called NS1[ZIKV]; membranous NS1 purified from cells
B2: binds [2].
